Measured values: paper PMC7232412

How the values were obtained:
HIV-1 Gag p6 (pGBT p6) = HIV-1 Gag p6 (pGBT p6) (UniProt P04591); experiment: yeast 2-hybrid assay; conditions: parent: est. 1.0; read off a plot
[1] = target: HIV-1 Gag p6 with ubiquitin fused to its C-terminus (pGBT p6-Ub), P04591;P0CG48; experiment: yeast 2-hybrid assay; conditions: parent: est. 1.0; read off a plot

**Q.** Which ratio to parent (HIV-1 Gag p6 (pGBT p6)) does the source give for “human Tsg101 wild-type (pGAD-hTsg101) (from UniProt Q99816) Y43A” here?
**A.** 1.4

**Q.** And the ratio to parent [1]?
**A.** 1.5
